In patent US20250011368A1, “DLL3 TARGETING PEPTIDES AND CONSTRUCTS THEREOF” (MARIANA ONCOLOGY INC., priority 2023, published 2025):
Numbered stars: 1 amine (or outer) side, 2 acyl side, 3 side chain; on linkers, the order of the positions; unused ones are H or OH. Bridge positions count the residues as written; N and C are the ends. Square brackets hold non-standard residues; d marks the D form. * marks the point of attachment. Ala(piperidin-4-yl) = O=C([C@H](CC1CCN([*:3])CC1)N[*:1])[*:2]; DOTA = O=C(O)CN1CCN(CC(=O)O)CCN(CC(=O)*)CCN(CC(=O)O)CC1; Phe(4-CF3) = N[C@@H](Cc1ccc(C(F)(F)F)cc1)C(=O)O; Ala(morpholin-4-yl) = N[C@@H](CN1CCOCC1)C(=O)O; Trp(5-F) = N[C@@H](Cc1c[nH]c2ccc(F)cc12)C(=O)O; Trp(7-aza) = N[C@@H](Cc1c[nH]c2ncccc12)C(=O)O; Pro(trans-4-F) = O=C(O)[C@@H]1C[C@@H](F)CN1; 2Nal = N[C@@H](Cc1ccc2ccccc2c1)C(=O)O; Nva(3-Et) = CCC(CC)[C@H](N)C(=O)O; 3Pal = N[C@@H](Cc1cccnc1)C(=O)O; 4Pal = N[C@@H](Cc1ccncc1)C(=O)O

T1: DLL3 on CT26.DLL3 cells (Homo sapiens (Human), UniProt Q9NYJ7 27-618)
T1 construct: CT26.DLL3 are engineered cells to express DLL3
T1 sequence: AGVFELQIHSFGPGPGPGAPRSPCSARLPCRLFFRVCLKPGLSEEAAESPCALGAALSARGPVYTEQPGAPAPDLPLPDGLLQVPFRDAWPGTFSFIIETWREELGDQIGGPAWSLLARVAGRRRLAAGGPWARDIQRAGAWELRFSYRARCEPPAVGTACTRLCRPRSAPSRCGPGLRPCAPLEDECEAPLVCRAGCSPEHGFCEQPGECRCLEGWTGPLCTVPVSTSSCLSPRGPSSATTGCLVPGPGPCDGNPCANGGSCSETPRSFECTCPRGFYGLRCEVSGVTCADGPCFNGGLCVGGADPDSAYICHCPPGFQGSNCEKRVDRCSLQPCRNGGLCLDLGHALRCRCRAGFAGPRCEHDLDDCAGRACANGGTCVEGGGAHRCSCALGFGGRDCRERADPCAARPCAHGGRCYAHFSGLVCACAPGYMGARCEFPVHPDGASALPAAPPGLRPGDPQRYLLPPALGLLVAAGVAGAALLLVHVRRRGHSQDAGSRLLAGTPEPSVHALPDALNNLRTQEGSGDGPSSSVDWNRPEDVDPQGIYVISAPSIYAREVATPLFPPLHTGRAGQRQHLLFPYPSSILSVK

T2: DLL3 on SHP-77 cells (human, UniProt Q9NYJ7 27-618)
T2 construct: SHP-77 cells are human-derived, non-engineered SCLC cells
T2 sequence: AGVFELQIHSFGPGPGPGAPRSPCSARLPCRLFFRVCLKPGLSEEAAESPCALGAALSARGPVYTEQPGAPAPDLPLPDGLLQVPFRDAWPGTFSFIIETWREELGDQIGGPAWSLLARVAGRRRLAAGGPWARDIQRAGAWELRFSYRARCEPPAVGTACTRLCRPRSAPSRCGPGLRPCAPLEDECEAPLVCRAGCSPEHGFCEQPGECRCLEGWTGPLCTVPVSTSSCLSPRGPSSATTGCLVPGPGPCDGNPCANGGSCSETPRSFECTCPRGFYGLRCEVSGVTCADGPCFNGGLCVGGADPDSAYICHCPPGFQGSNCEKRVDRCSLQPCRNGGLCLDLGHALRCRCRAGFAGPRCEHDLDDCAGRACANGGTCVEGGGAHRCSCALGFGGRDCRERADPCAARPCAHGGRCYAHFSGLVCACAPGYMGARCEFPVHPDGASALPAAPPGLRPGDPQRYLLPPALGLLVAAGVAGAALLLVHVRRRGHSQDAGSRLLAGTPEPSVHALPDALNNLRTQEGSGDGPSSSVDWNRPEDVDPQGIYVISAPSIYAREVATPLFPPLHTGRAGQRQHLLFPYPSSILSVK


Columns and labels:
DLL3 on CT26.DLL3 cells = target: T1, DLL3 on CT26.DLL3 cells; assay: 177Lu-peptide bound to CT26.DLL3 cells, gamma counting; letter grade, key in paragraph 629
Experimental: (§1) The study was conducted using SHP-77, CT26.WT, and CT26.DLL3 cells (Table 7) Adherent cell studies: The cells were cultured in appropriate culture media (20 mL) in tissue culture treated T150 flasks at 37° C. and 5% CO2. Adherent cells were detached (60-70% confluent) using 5 mL Versene at 37° C. for 3 minutes. After confirming the viability using countess and count of detached cells using Trypan blue, the cells were centrifuged at 4° C. for 5 minutes (1,000 rpm). The cell pellet obtained was washed once with PBS and resuspended in 1% PBSA to obtain the desired cell concentration (5-25 million cells/mL).
(§2) Total uptake: Cells were incubated with 300 μL (0.8 μCi) of the incubation buffer (containing radiolabeled peptide [¹⁷⁷Lu] Lu-test peptide) for 1 hour at 37° C. (Table 8). Post incubation, the cells were pelleted and washed 2 times using cold PBS+1% BSA. The supernatant and washes were combined and counted together as “unbound fraction” in a gamma counter. The cells were then resuspended in 300 μL of 1% PBS+1% BSA and counted in the gamma counter as “bound fraction”.

DLL3 on SHP-77 cells = target: T2, DLL3 on SHP-77 cells; assay: 177Lu-peptide bound to SHP-77 cells, gamma counting; letter grade, key in paragraph 629
Experimental: as §1, §2

| Binder | % Binding (DLL3 on CT26.DLL3 cells) [%] | % Binding (DLL3 on SHP-77 cells) [%] |
| --- | --- | --- |
| Ac-WTICN[Ala(piperidin-4-yl)][2Nal]HDCWP[dK](DOTA)-NH2 (disulfide 4-10; also: 177Lu in the DOTA chelator, also called [177Lu]Lu-test peptide) [[177Lu]Lu-labelled Cpd No. 267] | ≤ 25 |  |
| Ac-WTIC[3Pal]N[2Nal]HDCWP[dK](DOTA)-NH2 (disulfide 4-10; also: 177Lu in the DOTA chelator, also called [177Lu]Lu-test peptide) [[177Lu]Lu-labelled Cpd No. 263] | ≤ 25 |  |
| Ac-[Trp(5-F)]T[Nva(3-Et)]CNN[Phe(4-CF3)]HDC[Trp(7-aza)][Pro(trans-4-F)][dK](DOTA)-NH2 (disulfide 4-10; also: 177Lu complexed in the DOTA chelator) [[177Lu]Lu-labelled Cpd No. 146] |  | < 25 |
| Ac-WTIC[4Pal]N[2Nal]HDCWP[dK](DOTA)-NH2 (disulfide 4-10; also: 177Lu in the DOTA chelator, also called [177Lu]Lu-test peptide) [[177Lu]Lu-labelled Cpd No. 264] | ≤ 25 |  |
| Ac-WTIC[Ala(morpholin-4-yl)]N[2Nal]HDCWP[dK](DOTA)-NH2 (disulfide 4-10; also: 177Lu in the DOTA chelator, also called [177Lu]Lu-test peptide) [[177Lu]Lu-labelled Cpd No. 261] | ≤ 25 |  |
| Ac-WTICN[4Pal][2Nal]HDCWP[dK](DOTA)-NH2 (disulfide 4-10; also: 177Lu in the DOTA chelator, also called [177Lu]Lu-test peptide) [[177Lu]Lu-labelled Cpd No. 266] | ≤ 25 |  |
